Measured values: patent US12286624B2, “Method for generating a gene editing vector with fixed guide RNA pairs” (Johann Wolfgang Goethe-Universität Frankfurt am Main, priority 2018, dated 2025)

B1: NHT-GFP2: 3Cs fixed-pair construct of one NHT control gRNA and one GFP-targeting gRNA (nucleic acid)
guide: GAAAGGACGAAACACCGGAAGGGCATCGACTTCAAGGGTTTTAGAGCTATGCTTTTTTAAAAAAGCATAGCTCTAAAACGCATGTTGTGGCGGATCTTGCGAGGTACCCAAGCG
B2: GFP2-NHT: 3Cs fixed-pair construct of one GFP-targeting gRNA and one NHT control gRNA (nucleic acid)
guide: GAAAGGACGAAACACCGTCAGGATCAGGGTGTATGGCGTTTTAGAGCTATGCTTTTTTAAAAAAGCATAGCTCTAAAACCGATGTTGTGGCGGATCTTGCGAGGTACCCAAGCG
B3: GFP2-GFP1: fixed-pair combination of two different GFP-targeting gRNAs (nucleic acid)
guide: GAAAGGACGAAACACCGGAAGGGCATCGACTTCAAGGGTTTTAGAGCTATGCTTTTTTAAAAAAGCATAGCTCTAAAACCGATGTTGTGGCGGATCTTGCGAGGTACCCAAGCG
modifications: expressed or natural sequence
notes: fixed-pair combination of two different GFP-targeting gRNAs
B4: Cdk2/Cdk2: fixed-pair gRNA construct with two gRNAs targeting Cdk2 (nucleic acid)
guide: GAAAGGACGAAACACCGACAGGTTGCCAGTAAAAACAGTTTAGAGACGCTCGTCTCTAAACCTCCCGTCAACTTGTTTCTGCGAGGTACCCAAGCG
modifications: expressed or natural sequence

Tests used:
[1] = system: GFP-expressing hTERT-RPE1 cells; assay: GFP depletion by FACS after lentiviral transduction with enhanced 3Cs fixed-pair gRNA constructs; assay type: cell-based, human; conditions: transduced 48 hours, then puromycin selection another 4 days
Experimental: (§1) GFP-expressing hTERT-RPE1 cells were transduced with them for 48 hours, after which a selection pressure (puromycin) for another 4 days was applied before the cells were analyzed by FACS and immunoblotting for which wildtype (wt) and GFP-positive cells (GFP) served as controls. […] In addition, GFP deletion efficiency was confirmed by immunoblotting of GFP, confirming the FACS finding (FIG. 15b). Fluorescent proteins expressed in human cells reflect an artificial situation, the inventors therefore asked if endogenously expressed genes in RPE1 cells would similarly be depleted more efficiently by two gRNAs. To address this question, RPE1 cells were transduced with fixed-pair gRNA constructs encoding for NHT/NHT, NHT/Cdk2, Cdk2/NHT, or Cdk2/Cdk2.
RPE1 cells were seeded at an appropriate density for each experiment with a maximal confluency of 60-70% in DMEM/F12 (Thermo Fisher Scientific), supplemented with 10% FBS and 1% penicillin-ptreptomycin (Sigma). At the day of transduction, polybrene was added to the media to a final concentration of 8 μg/mL, as well as viral supernatant according to the previously determined viral titer. The next morning, the media was replaced with fresh media and the cells were subjected to antibiotic selection or experimental analysis.
All samples were analyzed on a FACSCanto II flow cytometer (BD Biosciences), and data were processed by FlowJo software (FlowJo, LLC). Gating was carried out on the basis of viable and single cells that were identified on the basis of their scatter morphology.

Cdk2 = assay: Depletion of endogenous Cdk2 by fixed-pair gRNA constructs (immunoblot); assay type: cell-based, human; conditions: RPE1 cells, compared with either single gRNA
Experimental: as §1
Preparation of lysates and immunoblot analyses were performed as described previously using Tris lysis buffer (50 mM Tris-HCl (pH 7.8), 150 mM NaCl, 1% IGEPAL CA-630) containing 20 mM NaF, 20 mM β-glycerophosphate, 0.3 mM Na-vanadate, 20 μg/ml RNase A, 20 μg/ml DNase and 1/300 protease inhibitor cocktail (Sigma-Aldrich, P8340) and phosphatase inhibitor cocktail #2 (Sigma-Aldrich, P5726). […] Protein levels were visualized with Pierce ECL Western Blotting Substrate on a BioRad ChemiDoc MP imaging system and analyzed with Bio-Rad Image Lab software (version 4.1 build 16).

| Molecule | GFP-positive cells by FACS [1] | depletion of endogenous Cdk2 (Cdk2) |
| --- | --- | --- |
| B1 | strong reduction of GFP-positive cells |  |
| B2 | strong reduction of GFP-positive cells |  |
| B3 | below the detection limit |  |
| B4 |  | more efficiently depleted |
